# Measurements published in patent US20030036092A1.
# Biological target: fluorogenic OmpT peptide substrate (BODIPY / trimethylrhodamine)
# Experiment: cell-based or functional assay
substance,measurement,value
"OmpT protease, wild type, expressed from multicopy plasmid pML19 in E. coli UT5600 (from UniProt P09169 21-317) (enzyme)",mean fluorescence intensity of cells by FACS after exposure to the fluorogenic substrate,30 times
